The record followed here is patent US7897569B2, “Use of HMGB fragments as anti-inflammatory agents” (The Feinstein Institute for Medical Research, priority 2001, dated 2011).

For this experiment, the system named is HMGB1. Description: A box inhibition of HMGB1 induced TNF release from RAW 264.7 cells (L929 assay). The format is cell-based. The settings on record: HMGB1 1 μg/ml, A box 0-25 μg/ml, 16 hours. The protocol: Weak agonists are by definition antagonists. […] This study was carried out as follows. Sub-confluent RAW 264.7 cells in 24-well dishes were treated with HMGB1 (1 μg/ml) and 0, 5, 10, or 25 μg/ml of A box for 16 hours in Opti-MEM I medium in the presence of polymyxin B (100 units/ml). The TNF-stimulating activity (assayed using the L929 cytotoxicity assay described herein) in the sample receiving no A box was expressed as 100%, and the inhibition by A box was expressed as percent of HMGB1 alone. […] Data in FIG. 4A are presented as mean±SD (n=2-3 independent experiments).

B1: A box: Human HMGB1 mutant containing only the A box, SEQ ID NO:21 (A box SEQ ID NO:22) (protein)
chain: MGKGDPKKPTGKMSSYAFFVQTCREEHKKKHPDASVNFSEFSKKCSERWKTMSAKEKGKFEDMAKADKARYEREMKTYIPPKGET
As for B1, the “apparent EC50 for inhibition of HMGB1 induced TNF release” value was “approximately 7.5 μg/ml”.
